Test results from patent publication US20090226372A1 (SANFORD BURNHAM MEDICAL RESEARCH INSTITUTE, published 2009).

Legend:
[1] = molecular target: T1, triple mutant S346A-E348A-T349A NRP-1 expressed on transiently transfected M21 melanoma cells (UniProt O14786 22-923, limits assumed); assay: phage binding to transiently transfected M21 melanoma cells, titration
T1 construct: whole, on cells; The stated codon change SKET to AKAA gives T349A; also called Mutant NRP-1

[2] = molecular target: T2, wild-type NRP-1 expressed on transiently transfected M21 melanoma cells (UniProt O14786 22-923); assay: phage incubated with M21 cells transiently transfected with NRP-1, immunostaining and confocal imaging
T2 construct: whole, on cells; the printed SKET at 346-349 fits human NRP-1; also called wild type NRP-1 cDNA in pcDNA3.1(+)
T2 sequence (O14786 22-923 limits assumed): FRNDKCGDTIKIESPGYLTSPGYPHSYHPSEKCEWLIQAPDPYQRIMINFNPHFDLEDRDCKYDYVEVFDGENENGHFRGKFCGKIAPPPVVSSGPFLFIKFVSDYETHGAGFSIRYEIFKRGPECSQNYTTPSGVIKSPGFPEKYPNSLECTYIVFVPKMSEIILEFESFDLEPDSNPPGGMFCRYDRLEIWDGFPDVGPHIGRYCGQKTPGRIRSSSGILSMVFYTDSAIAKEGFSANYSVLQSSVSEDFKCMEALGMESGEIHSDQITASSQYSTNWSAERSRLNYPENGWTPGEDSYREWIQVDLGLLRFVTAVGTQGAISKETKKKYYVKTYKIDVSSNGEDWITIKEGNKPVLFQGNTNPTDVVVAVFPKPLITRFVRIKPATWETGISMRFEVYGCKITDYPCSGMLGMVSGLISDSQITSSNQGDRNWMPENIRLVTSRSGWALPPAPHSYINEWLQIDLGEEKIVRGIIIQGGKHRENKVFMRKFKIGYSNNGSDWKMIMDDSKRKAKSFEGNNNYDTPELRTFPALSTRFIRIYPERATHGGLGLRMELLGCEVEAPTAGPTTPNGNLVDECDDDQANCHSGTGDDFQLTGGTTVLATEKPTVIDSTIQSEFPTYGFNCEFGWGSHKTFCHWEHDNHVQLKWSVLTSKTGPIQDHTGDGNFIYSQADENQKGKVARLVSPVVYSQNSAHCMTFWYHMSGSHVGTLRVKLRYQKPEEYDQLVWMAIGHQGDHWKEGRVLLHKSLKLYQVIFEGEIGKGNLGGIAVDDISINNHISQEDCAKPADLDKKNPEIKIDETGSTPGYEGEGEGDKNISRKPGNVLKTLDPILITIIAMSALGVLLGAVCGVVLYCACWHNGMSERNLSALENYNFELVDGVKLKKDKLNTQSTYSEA

Binder	binding result [1]	binding result [2]
RPARPAR (also called RPARPAR phage; RPARPAR T7; not shown: T7 bacteriophage major coat protein gp10 (T7-select display system); Limits) [T7 phage displaying RPARPAR (SEQ ID NO:2)]	no binding	–
RPARPARA (not shown: T7 bacteriophage major coat protein gp10 (T7-select display system); Limits) [T7 phage displaying RPARPARA (SEQ ID NO:3)]	–	no binding
